Reference: publication PMC3698143, “GRG5/AES Interacts with T-Cell Factor 4 (TCF4) and Downregulates Wnt Signaling in Human Cells and Zebrafish Embryos” (PLoS ONE, 2013)

Biological target: Myc-tagged full-length TCF4 (human, UniProt Q9NQB0-8 1-596)
Assay: cell-based or functional assay

Myc-tagged full-length TCF4, sequence (Q9NQB0 other isoform, or with tags, fused parts or gaps): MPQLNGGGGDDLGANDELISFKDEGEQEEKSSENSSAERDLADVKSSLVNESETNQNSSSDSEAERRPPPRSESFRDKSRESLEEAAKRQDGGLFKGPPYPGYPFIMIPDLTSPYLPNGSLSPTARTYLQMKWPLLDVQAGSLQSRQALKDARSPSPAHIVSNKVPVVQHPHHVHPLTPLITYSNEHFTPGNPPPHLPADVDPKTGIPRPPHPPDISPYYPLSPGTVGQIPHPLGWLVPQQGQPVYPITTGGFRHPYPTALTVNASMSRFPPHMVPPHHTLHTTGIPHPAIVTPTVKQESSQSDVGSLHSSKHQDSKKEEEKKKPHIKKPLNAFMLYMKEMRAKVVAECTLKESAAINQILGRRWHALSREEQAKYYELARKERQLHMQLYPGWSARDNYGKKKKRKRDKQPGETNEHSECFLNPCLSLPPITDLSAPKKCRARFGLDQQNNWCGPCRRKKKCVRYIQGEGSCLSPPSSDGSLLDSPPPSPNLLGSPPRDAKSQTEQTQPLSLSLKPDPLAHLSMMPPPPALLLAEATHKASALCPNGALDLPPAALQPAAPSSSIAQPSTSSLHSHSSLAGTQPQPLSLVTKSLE

B1: HA-epitope-tagged GRG5/AES (natural protein, human, UniProt Q08117 1-197, looked up)
chain: MMFPQSRHSGSSHLPQQLKFTTSDSCDRIKDEFQLLQAQYHSLKLECDKLASEKSEMQRHYVMYYEMSYGLNIEMHKQAEIVKRLNGICAQVLPYLSQEHQQQVLGAIERAKQVTAPELNSIIRQQLQAHQLSQLQALALPLTPLPVGLQPPSLPAVSAGTGLLSLSALGSQAHLSKEDKNGHDGDTHQEDDGEKSD
- TCF-Luc luciferase reporter in HEK293 cells with transfected β-catenin: repression on co-transfection of GRG5/AES and dnTCF4 plasmids (0.4 µg each), against a 6.3-fold additive effect of each alone: 22.5 fold
